Measured values from the nanobody polyreactivity screen of Harvey et al. (2022).

Assay: yeast display, Sf9 membrane polyspecificity reagent, FACS + sequencing; frameworks hold sequencing errors
Procedure, shortened: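 Sorting gates, low and high (top ~1%), were placed on anti-HA fluorescence to track expression and on streptavidin fluorescence to track reagent binding. A clone's polyreactivity label is taken from the gate it came out of. The reagent was 10% biotinylated, detergent-solubilized Sf9 membrane, applied for 1 hour at 4 °C to galactose-induced yeast display cells.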

Sequence | polyreactivity (PSR sort gate)
QVQLVESGGGLVQAGGSLRLSCAASGSIFSWNAMGWYRQAPGKERELVAGITWSGGGTSYADSVKGRFTISRDNAKNTVYLQMNSLKPEDTAVYYCAKEWIFDFNYWGQGTQVTVSS | low polyreactivity
QVQLVESGGGLVQAGGSLRLSCAASGSIFRDYVMGWYRQAPGKERELVAAISGNDGSTYYADSVKGRFTISRDNAKNTVYLQMNSLKPEDTAVYYCNADEASTVPQFYSYLDFDYWGQGTQVTVSS | low polyreactivity
QVQLVESGGGLVQAGGSLRLSCAASGIIFLDYVMGWYRQAPGKERELVAAINSGGSTYYADSVKGRFTISRDNAKNTVYLQMNSLKPEDTAVYYCAADDYYKFDYWGQGTQVSVSS | low polyreactivity
QVQLVESGGGLVQAGGSLRLSCAGSGSTFKYYAMGWYRQAPGKARELVAAIRTSGGRTYYADSVKGRFTISRDNAKNTVYLPMNSLKPEDTAVYYCNASSTQFGQRYEYWGQGTQVTVSS | high polyreactivity
QVQLVESGGGLVQAGGSLRLSCAASGSTFSPNDMGWYRQAPGKERELVADNSNYADSVKGRFTISRDNAKNTVYLQMNSLKPEDTAVYYCAAEWRGDRYRLYVVSWWYDYWGQGTQVTVSS | low polyreactivity
QVQLVESGGGLVQAGGSLRLSCAASGFTFYRNTMGWYRQAPGKERELVATITFSGTRTYYADSVKGRFTISRDNAKNTVYLQMNSLKPEDTAVYYCNRVRYRQSAFDFWGQGTQVTVSS | high polyreactivity
QVQLEESGGGLVQAGGSLRLSCAASGSIFLNYGMGWYRQAPGKERELVAGISNGGSTNYADSVKGRFTISRDNAKNTVYLQMNSLKPEDTAVYYCARPAYKSRGKRFDYWGQGTQVTVSS | low polyreactivity
QVQLVESGGGLVQAGGSLRLSCAASGSIFGDYVLGWYRQAPGKERELVASISESTDSTYYADSVKGRFTISRDNAKNTVYLQMNSLKPEDTAVYYCATAYPEWAVWGYDYWGQGTQVTVSS | low polyreactivity
QVQLVESGGGLVQAGGSLRLSCAASGLTFSLYALGWYRQAPGKERELVAAISWTGGSTYYADSVKGRFSISRDNAKNTVYLQMKSLKPEDTAVDYCNARYTLFARYGYDYWGQGTQVTVSS | low polyreactivity
QVQRVESGGGLVQAGGSLRLSCAASGSTFIGYDMRWYRQAPGTERELVAAISYSDGTYYADSVKGRFTISRDNAKNTVYLQMNSLKPADTAVYYCAADSLYYRYDYWGQGPQVTVSS | low polyreactivity
QVQLVESGGGLVQAGGSLRLSCAASGRTFYHNAMGWYRQAPGKERELVASNRWSGGSTYADSVNGRFTISRDNAKNTVYLQMNSLKPEDTAVYYCARRYYRTGYWEPFIALNGYWGQGTKVTVSS | high polyreactivity
QVQLVESGGGLVQAGGSLRLSCAASGFIFRSYAMGWYRQAPGKERELVAVISRRGVNTHYADSVKGRFTISRDNAKNTVYLQMNSLKPEDTAVYYCAKGLTALGDYWGQGTQVTVSS | high polyreactivity
QDQLVESGGGLDQAGCTLRLSCAASVGTFRYYAMGWYRQAPGKERELVASISSGGSTNYADSVKGRFTISRDNAKNTVYLQMNSLKPEDTAVYYCNADPRRPVTSYDYWGQGTQVTVSS | low polyreactivity
QVQLVESGGGLVQAGGSLRLSCAASGFDGYAMGWYRQAPGKERELVAAISWSGSRTYYADSVKGRFTISRDNAKNTVYLQMNSLKPEDTAVYYCAADDVGRGSTPYDYWGQGTQVTVSW | high polyreactivity
QVHLVESGGGLVQAGGSLRLICAASGGTLWVNTMGWYRQAPGKERELVAAISRRGGSTYYADSVKGRFTISRDNAKNTVYLQMNSLKPEDTAVYYCAKGYSSHYWWAYDSWGQGTQVTVSS | high polyreactivity
QVQLVESGGGLVQAGGSLRLSCAASGSTFDTYAMGWYRQAPGKERELVAAISRSGTSTYYADSVKGRFTISRDNAKNTVYLQMNSLKPEDTAVYFCNNPWYSYRYGGVGYGYWGQGTQVTVSS | low polyreactivity
QVQLVESGGGLVQAGGSLRLSCAASAFIFIIYAMGWYRQAPGKERELVAGIRWSGGSTYYADSVKGRFTISRDNAKNTVYLQMNSLKQEDTAVYYCNKDRGSLTLYTYDYWGQGTQVTVSS | low polyreactivity
QFQLLESGGGLVQAGGSLRLSCADSGSIYLYYARGWYRQAPGKESELVAAITYSGVSTYDAVSVKGRFTISRDTSNNTVYLQMNSLKPEDNAFYDCARRWNAFGSKGVYWGQGTQVTVSS | high polyreactivity
QVQLVESGGGLVQAGGSLRLSCAASGIIFAYYAMGWYRQAPGKERELVAAITSGGSTHYADSVKGRFTISRDNAKNTVYLKMNSLKPEDTAVYYCAADVSYYASLFDYGGQGTQVTVSS | low polyreactivity
QVQLVESGGGIVQAGGSLRLSCAASGRTTSVYAIGWYRQAPGKERELVAAINRSDGGTYYADSVKGRFTISRDNAKNTVYLQMNRLQPEDTAVYYCNAVVLYGWYGRRYSSRLDYWGQGTQVTVSS | high polyreactivity
QVQLVESGGGLVQAGGSLRLSCAASGSTFWAYAMGWYRQAPGKERELVAAITTGGGRTFYADSVKGRFTISRDNAKNTVYLQMNSLKPEDTAVYYCAAVSQSYRMYYWGQGTQVTVSS | low polyreactivity

Sequence | polyreactivity (PSR sort gate)
QVQLVESGGGLVKAGGSLRLTCSASGSIFRRNALRCSRHAPGKERELDAAISSGGSTNYADSVKGRFTISRDNAKNTVYLQMISQKPEDSAVYYCNTRYFRRARKGDSWGQGTQVTVSS | high polyreactivity
QVQLVESGGGLVQAGGSLRLSCADSGGIFLSYGMGWYRQAPGKERELVAAISRNDGRTYYADSVKGRFTISRDNAKNTVYLQMNSLKPEDTAVYYCAADPEYYYYIYVYVQYDYWGQGTQVTVSS | low polyreactivity
QVQLVESGGGLVQAGGSLRLSCAASGRTFFKNAMGWYRQAPGKERELVAAITSSGGTTYYADSVKGRFTISRDNAKNTVYLQMISLKPEDTAVYYCATRKYPIRYGYGYWGQGTQVTVSS | high polyreactivity
QVQLVESGGGLVQAGGSLRLSCAASGRTLGRNAMGWYRQAPGKERELVASISSGGSTNYADSVKGRFTISRDNAKNTVYLQMNSLKPEDTAVYYCAAGYFRDYWGQGTQVTVSS | high polyreactivity
QVQLVESGGGLVQAGGRLRLSCAASGSIFYSNAMGWYRQAPGKERELVARITWSGGSTYYADSVKGRFTISRDNAKNTVYLQMNSLKPEDTAVYYCNKVIFRYFTTRPTRTYEYWGQGTQVTVSS | low polyreactivity
QDQLVESGGGLVQAGGSLRLSCAASGLTFYQYDMGWYRQAPGKERELVAAISRSGGRTYYADSVKGRFTISRDIAMITVYLQMNSLKPEDTAVYYCARPDKRLEYSENYYWGQGSQVTVSS | high polyreactivity
QVQLVESGGGLVQAGGSLRLSCAASGFIFSGYAMGWYRQAPGKERELVAAITRSGSRTYYADSVKGRFTISRDNAKNTVYLQMNSLKPEDTAVYYCAKDKPKYGISTMDYWGQGTQVTVSS | high polyreactivity
QVQLVESGGGLVQAGGSLRLSCAASGSTFPTYAMGWSRQAPGKERELVAAIDWSDGSITYYADSVKGRFTISRDNAKNTVFLQLNSLKPEDTAVYYCAKDYSQYGWRYDYWGQGTQVTVSS | low polyreactivity
QVQLVESGGGLVQAGGSLRLSCAASGIISRVYAMGWYRQAPGKERELVAAITRRGSTTYYADSVKGRFTISRDNAKNTVYLQMNSLKPEDTAVYYCAALARYGPRYRGDYWGQGTQVTVSS | high polyreactivity
QVQLVESGGGLVQAGGSLRLSCAASGSIFWKNAMGWYRQAPGKERELVAAITRRGGSTYYADSVKGRFTISRDNAKNTVYLQMNSLKPEDTAVYYCAATGGAPYKIEWGQGTQVTVSS | low polyreactivity
QVQLVESGGGLVQAGGSLRLSCAASGYNFYVNGMGWYRQAAGTERELVARITLSGTSTYYADSVKGRITISRDYAKNTVYLQMNSLKPDDTAVYYCAAPYFTYGLDVDVYWGQGTQVTVSS | low polyreactivity
QVQLQESGGGLVQAGGSLRLSCAASGSIFYEFYMGWYRQAPGKERELVAAIANGASTHYADSVKGRFTISRDNSNNTVYLQMSSLKQEDTAVYYCAVNTTSDIDYIYWGQGTQVNVSS | low polyreactivity
QVQLVESGGGLVQAGGSLRLSCAASGYTFLYNAMGWYRQAPGKERELVAAISWNGGRTYYADSVKGRFTISRDNAKNTVYLQMNSLKPEDTAVYYCAKTPSYGRNVDYWGQGTQVTVSS | high polyreactivity
QVQLVESGGGLVQAGGSLRLSCAASGRIFGLYAMGWYSQAPGKERELVAAISRGGGSTYYSDSVMGRFTISRDNAKNTVYLQMKSLKPEVTAVYYCATGLGYFSRLDYWGQGTQVTVSS | low polyreactivity
QVQLVESRGGLVQAGGSLRLSCAASRRIFVRNAIGWYIQEPGKERELVAAISSSGGPTYYADSVKGRFTISRDNAKNTVYLQMNSLKPEDTAVYYCAASSSNKEYDYWGQGTQVTVSS | high polyreactivity
QVQLQESGGGLVQAGGSLRLSCAASGTIFRISDMGSYRQAPGKEREFVAAITYGANTYYADSGKGRFTISRDNAKNTVSLQMNSLKPEDTAVYYCAVPPVKETILDYWGQGTQVTVSS | low polyreactivity
QVQLVESGGGLVQAGGSLRLSCAASGRNFGAYAMGWYRPAPGKERELVAAITTAGSTHYADSVKGRFTISRDNAKNTVYLQMKSLKPQDTAVYYCAADGIARSYVLFDAYDFLYDYWGQGTQVTVSS | low polyreactivity
QVQLVESGGGLVQAGGSLRLSCAASGRTLYIYAMGWYRQAPGKERELVAAITRRGDSTYYADSVKGRFTISRDNAKNTVYLQMNSLKPVDTAVYYCAADFPDTSSQYDPAYEYWGQGTQVTVSS | low polyreactivity
QVQLVESGGGLVQAGGSLRLSCAASGSIIPLYAMGWYRQAPGKERELVAAISRRGGSTYYADSVKGRFTISRDNAKNTVYLQMNSLKPEDTAVYYCAVDTPSPSRGPRFNYWGQGTQVTVSS | high polyreactivity
QVNLVDSGGRLVQAGGSLRLSCAASGRIFYRYAMGWYIQAPGKERELVAAISRRGGSTYYADSVKGRFTISRDNAKNTVYLQMNSLNPEDTAVYYCNVYRSAFSYDSWGQCTQVTVSS | high polyreactivity
